Patent US20260151519A1 (AKTIS ONCOLOGY, published 2026)
Bridges are numbered along the chain shown (N, C = ends). Primed or numbered codes have the meaning given here. The star is where a group is joined. DOTA = O=C(O)CN1CCN(CC(=O)O)CCN(CC(=O)*)CCN(CC(=O)O)CC1; PEG4″ = 4(ethylene glycol)

T1: Human Nectin-4 expressed on cells (human, UniProt Q96NY8 32-510)
T1 construct: Endogenous on HT-1376 cells; also called endogenous Nectin-4 on HT-1376 cells; cell surface Nectin-4
T1 sequence: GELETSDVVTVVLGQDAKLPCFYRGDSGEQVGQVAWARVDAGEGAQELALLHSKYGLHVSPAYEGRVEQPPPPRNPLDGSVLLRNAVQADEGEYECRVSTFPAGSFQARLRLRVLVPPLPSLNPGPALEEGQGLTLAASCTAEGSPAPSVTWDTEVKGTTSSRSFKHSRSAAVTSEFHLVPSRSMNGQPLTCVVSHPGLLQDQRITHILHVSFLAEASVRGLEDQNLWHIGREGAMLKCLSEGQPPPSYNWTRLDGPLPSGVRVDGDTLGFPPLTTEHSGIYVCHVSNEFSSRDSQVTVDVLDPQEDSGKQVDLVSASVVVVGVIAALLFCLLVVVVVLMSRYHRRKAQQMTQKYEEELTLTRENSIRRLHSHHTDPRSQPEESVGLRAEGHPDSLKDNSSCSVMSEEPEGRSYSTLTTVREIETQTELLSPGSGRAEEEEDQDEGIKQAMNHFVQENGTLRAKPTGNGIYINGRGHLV

T2: Human Nectin-4 (human, UniProt Q96NY8 32-349, limits assumed)
T2 construct: Protein immobilised on the SPR chip; also called target protein
T2 sequence: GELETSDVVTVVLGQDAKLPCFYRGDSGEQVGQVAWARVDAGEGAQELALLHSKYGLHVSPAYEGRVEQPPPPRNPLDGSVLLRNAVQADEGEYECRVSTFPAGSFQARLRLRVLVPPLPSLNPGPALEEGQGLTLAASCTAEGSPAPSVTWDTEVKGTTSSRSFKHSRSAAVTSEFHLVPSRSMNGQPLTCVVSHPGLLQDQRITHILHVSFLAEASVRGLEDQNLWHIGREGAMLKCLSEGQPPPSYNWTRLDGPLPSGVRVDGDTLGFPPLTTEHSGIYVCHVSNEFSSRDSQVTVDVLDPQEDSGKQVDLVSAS

T3: Murine Nectin-4 (mouse, UniProt Q8R007 31-347, limits assumed)
T3 construct: Protein immobilised on the SPR chip; also called mouse Nectin-4
T3 sequence: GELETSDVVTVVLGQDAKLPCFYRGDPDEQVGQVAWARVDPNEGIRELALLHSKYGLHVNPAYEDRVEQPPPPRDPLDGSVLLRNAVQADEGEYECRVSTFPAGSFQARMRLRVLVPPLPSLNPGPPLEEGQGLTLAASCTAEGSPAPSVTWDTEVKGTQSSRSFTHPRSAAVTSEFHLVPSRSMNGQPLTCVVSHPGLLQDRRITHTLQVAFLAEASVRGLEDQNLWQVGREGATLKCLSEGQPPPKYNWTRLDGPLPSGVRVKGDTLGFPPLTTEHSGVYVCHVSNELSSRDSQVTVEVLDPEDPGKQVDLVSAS


What was measured:
[1] = molecular target: T1, Human Nectin-4 expressed on cells; test: radioligand binding, 177Lu-labelled compound, HT-1376 cells
Description: On the day of assay, culture medium was removed and PBS was added to cells. Association kinetics were measured at three concentrations of radioligand, and this was performed by the addition of lutetium-177 radioconjugates to cells at various time points from 1 to 60 minutes.

Human Nectin-4 [2] = molecular target: T2, Human Nectin-4; test: Table 2B (DELFIA or SPR)
Human Nectin-4 [3] = molecular target: T2, Human Nectin-4; test: SPR, Biacore, 1:1 model, 25 C
Description: (§1) Peptide binding affinity to the target protein was measured by SPR using an SPR machine, such as a Biacore T200 instrument. The target protein was covalently coupled to a Biacore chip surface using free amine-coupling chemistry (NHS/EDC) and all uncoupled sites were blocked with ethanolamine. Free peptides were flowed over the target protein surface in increasing concentrations to measure association (Kₐ, 1/Ms⁻¹)) and dissociation (Kd, s⁻¹) to calculate the dissociation equilibrium constant (KD) using an appropriate binding model (see, e.g., Nikolas Stroth, J Biol Methods. 2016; 3 (1)).
(§2) In FIGS. 1A, 1B, 2A, and 2B, lines on graphs are labeled from top to bottom, beginning with letter “a,” and the corresponding concentration is noted to the right of the figure.

Murine Nectin-4 = molecular target: T3, Murine Nectin-4; test: SPR, Biacore, 1:1 model, 25 C
Description: as §1, §2

| Binder | Kd [1] [nM] | Kd (Human Nectin-4 [2]) [nM] | Kd (Human Nectin-4 [3]) [nM] | koff (Human Nectin-4 [3]) [s⁻¹] | Kd (Murine Nectin-4) [nM] | koff (Murine Nectin-4) [s⁻¹] |
| --- | --- | --- | --- | --- | --- | --- |
| {DOTA-PEG4″}-CEYDEEFFTALKRLRGGDICYYIKKKFKKVPKLCIEEILDKLGC-NH2 (designed binder, disulfide 1-34, 20-44; also: 177Lu-labelled in radioligand assay) [C82] | 14.1 | – | – | – | – | – |
| Ac-CEYDEEFFAGLKRLRGGDICYYIKKKFDKVPDLCIEEILDKLGC-OH (designed binder, disulfide 1-34, 20-44) [C9] | – | 7.5 | 7.5 | 0.0227 | 7.83 | 0.0213 |
| {DOTA-PEG4″}-CEYDEEFFAGLKRLRGGDICYYIKKKFDKVPDLCIEEILDKLGC-OH (designed binder, disulfide 1-34, 20-44) [C12] | – | 10.5 | – | 0.017 | 2.94 | 0.0262 |
| {DOTA-PEG4″}-CEYDEEFFAGLKRLRGGDICYYIKKKFDKVPDLCIEEILDKLGC-OH (designed binder, disulfide 1-34, 20-44; also: 138La complex of DOTA) [C91] | – | – | 17.9 | 0.0297 | 24.6 | 0.0282 |
